# Results taken from patent US6312690, “Monoclonal recombinant anti-rhesus D (D7C2) antibody” (Institut Pasteur, dated 2001).
# T1: Rhesus D antigen (human, UniProt Q02161)
# T1 sequence: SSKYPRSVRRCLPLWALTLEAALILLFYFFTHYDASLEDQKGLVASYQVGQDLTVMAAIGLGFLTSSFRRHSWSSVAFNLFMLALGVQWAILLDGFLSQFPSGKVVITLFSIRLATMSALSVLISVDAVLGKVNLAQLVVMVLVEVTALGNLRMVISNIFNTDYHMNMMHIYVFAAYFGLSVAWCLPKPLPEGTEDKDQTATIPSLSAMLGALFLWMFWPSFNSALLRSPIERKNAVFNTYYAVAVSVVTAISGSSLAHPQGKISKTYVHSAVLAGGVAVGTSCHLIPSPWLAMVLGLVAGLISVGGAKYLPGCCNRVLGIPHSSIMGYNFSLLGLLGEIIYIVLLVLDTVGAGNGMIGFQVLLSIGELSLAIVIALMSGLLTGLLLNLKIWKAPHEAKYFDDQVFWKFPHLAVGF
# Tests used:
# Rhesus D antigen [1] = molecular target: T1, Rhesus D antigen
# Rhesus D antigen [2] = molecular target: T1, Rhesus D antigen; experiment: agglutination titre on a pool of papain-treated R1/r red blood cells, one hour at 37° C.
# Rhesus D antigen [3] = molecular target: T1, Rhesus D antigen; experiment: agglutination of red blood cells
"% specific lysis (ADCC test, 51Cr release) (% specific lysis) (Rhesus D antigen [1])",titre (titre (1/x dilution)) (Rhesus D antigen [2]),binding result (Rhesus D antigen [3]),Molecule
0,,,"""irrelevant"" recombinant antibody (IgG1, κ) directed against a protein other than the Rhesus antigen"
93.3,512,,"r-IgG-D7C2 recombinant monoclonal antibody (antibody, V domains shown) VH: QVQLEQWGAGLLKPSETLSLTCTVYGGSFSGYYWSWIRQPPGKGLEWIGEINHSGSTNYNPSLKSRVTISVDTSKNQFSLKLNSVTAADTAVYYCARAPEYKWKYHGDWFDPWGQGTTVTVSS VL: DIELTQDPAVSVALGQTVRITCQGDSLRTYYASWYQQKPGQAPVLVIYGKNNRPSGIPDRFSGSSSGNTASLTITGAQAEDEADYFCNSGGKVFGGGTKLTVLG"
,,binds,"IgM-D7C2 human parental monoclonal antibody (antibody, V domains shown) VH: QVQLQQWGAGLLKPSETLSLTCTVYGGSFSGYYWSWIRQPPGKGLEWIGEINHSGSTNYNPSLKSRVTISVDTSKNQFSLKLNSVTAADTAVYYCARAPEYKWKYHGDWFDPWGQGTTVTVSS VL: QSVLTQDPAVSVALGQTVRITCQGDSLRTYYASWYQQKPGQAPVLVIYGKNNRPSGIPDRFSGSSSGNTASLTITGAQAEDEADYFCNSGGKVFGGGTKLTVLG"
